Assay results published in the DeepSol protein solubility set.

Assay: soluble on expression in E. coli; label from the status in PepcDB or PDB records

Sequence	soluble on expression in E. coli
MGSDKIHHHHHHAACADNADLNEPAGSTTPPAQVLNATVKNLPGAAIIYYDLPDDQNLKYVRASYKVDNMVRTVNASFYTDSLVVEGFPTKGEYDIELYSVSYGEVVSSPLVVKVNPDTPPYQKVRGTLVSAETFGGIRVNFDNPEKAKLGLGVIKKQAEGIWTQVYMHYTEAKGGDFYVRGLDAVTTDFGIFVRDRWGHLSDTLYVTETPLYEEQCDKSLFRKMALPTDSYECHSWNEVTKGNDMTRLWDGITDADPCFQTKTTTVMPQWFTFDMGENYKLSRFVMVSRYYPGKYGNTFKAGHPKHFEIWGSINPNPDGSFDDSWVLLSEYESVKPSGGGVNDALTAEDQEAAKNGENFIIPDNAPAVRYIRFRTNNTWGNTRYMHLHELTFFGAKHN	not soluble
MGSDKIHHHHHHLEELDQMRAVFGTRPWREPTDTPAVISVSNFKGGVGKSTVALHLAQHFAIHGYRVLFIDCDSQASSTMMFGYRPDVDLTEDDTLYGHFHNPELLGVRSIIRKTHFFGLDLIPANLKLYNLEYEIAGYLAQNQNFDIIDLIAEAIDTVVDDYDVVVMDPPPALGMVSMAVLQAANAMVIPVPPSVIDFASTVSFIDMARTTMKQLEQIAGRVKPAYNFIRLVGSRVDESKSMHREILSMMRQVFGGSMATSVLKTSAEIDNASSRMKTVFELDRPVTSHEVHNRCMKHLSDVCREIETDVLRTWASRAGEAV	not soluble
MATFYEVIVRVPFDVEEHLPGISDSFVDWVTGQIWELPPESDLNLTLVEQPQLTVADRIRRVFLYEWNKFSKQESKFFVQFEKGSEYFHLHTLVETSGISSMVLGRYVSQIRAQLVKVVFQGIEPQINDWVAITKVKKGGANKVVDSGYIPAYLLPKVQPELQWAWTNLDEYKLAALNLEERKRLVAQFLAESSQRS	soluble
TEKKYIVALDQGTTSSRAVVMDHDANIISVSQREFEQIYPKPGWVEHDPMEIWATQSSTLVEVLAKADISSDQIAAIGITNQRETTIVWEKETGKPIYNAIVWQCRRTAEICEHLKRDGLEDYIRSNTGLVIDPYFSGTKVKWILDHVEGSRERARRGELLFGTVDTWLIWKMTQGRVHVTDYTNASRTMLFNIHTLDWDDKMLEVLDIPREMLPEVRRSSEVYGQTNIDGKGGTRIPISGIAGDQQAALFGQLCVKEGMAKNTYGTGCFMLMNTGEKAVKSENGLLTTIACGPTGEVNYALEGAVFMAGASIQWLRDEMKLINDAYDSEYFATKVQNTNGVYVVPAFTGLGAPYWDPYARGAIFGLTRGVNANHIIRATLESIAYQTRDVLEAMQADSGIRLHALRVDGGAVANNFLMQFQSDILGTRVERPEVREVTALGAAYLAGLAVGFWQNLDELQEKAVIEREFRPGIETTERNYRYAGWKKAVKRAMAWEEHDQLYTRASQPELAPEDPEDLEHHHHHH	soluble
MAGHVHKVAVRQLKLLRYRNYFSFNIRFSGQHVVFTGHNGSGKTNLLEALSFLSPGRGLRRAAYSDVSFANGGGEGFVVFARLECALYGEVNIGTALEMSDNSRKVHINGVNETGDCLTDYCHMSILTPSMDGLFTGSSLERRRFLDRMVLAIDPLHSRRIADYDRVMRARNRLFLDGNEDCAWFDALEKQMAELATAISAARIDVIRLLNDMLARTPSQLPFPRAFLQIDGFLEAALSKISAVEVEEQFCDRLQHNRAIDRAAGRTLEGPHRTDLQVFYADKNMAAASCSTGEQKALLTGLVLCHARLTGLMSERTPILLLDEIVAHLDSHRRAALFDILDDLGGQTFMTGTDPILFNALKGRAEFFAIKDGTLLQ	not soluble
MAKKNNKTKIQKPEAALQTDVAQITATGRVIAEHPSNFITPQKMRALFEDAESGDIRAQHELFADIEERDSDIAANMGTRKRALLTLNWRVAPPRNATPEEEKLSDQAYEMMDSLPTLEDLIMDLMDAVGHGFSALEVEWVFSDGLYLPRNFIHRPQSWFKWDKDNGLLLRTRENPEGEALWPLGWVVHTQKSRSVQQARNGLFRTLSWLYMFKHYAVHDFAEFLELYGMPIRIGKYGAGATKEEKNTLLRAVAEIGHNAAGIMPEGMEIELHNAANGTTATSNPFLQMADWCEKSAARLILGQTLTSGADGKSSTNALGNIHNEVRRDLLVSDAKQVAQTITSQIIGPFLQINYPHADPNRVPKFEFDTREPKDIAVFADAIPKLVDVGVQIPESWVRDKLVIPDVQEGEAVLVRQVPDNPVNRTALAALSAHTVPSKATGRHQEILDGALDDALVEPDFNSQLNPMVRQAVAALNACNSYEEADAALNALYPNLDNAKLRTYMQQALFISDILGQDHA	soluble
MTEQTFSIREAVPTDADQLLSVMSKIGSETPYLVMDERGMAMSTTELAENLATLYESPNNVLLVALAGEAIIGTASVSASSKKRMEHIGEIGISILKEYWGYGLGSILMEELIRWAHESHVIRRLELTVQDRNQRAIHVYKKLGFETEAIMPRGAKTDQGEFLDVHLMRLLID	not soluble
MAHHHHHHMRRWGAAGPLRSGLQLRQVASAARRRQPAQLKIPISDAPAHVKAMERPRSKLETPAAYSSFRSTETIEEFRENYKYLAAGERETSVTARVAGRITSLRDMGKMLFATVRSSGVDLQLVVHVGEHFTRDCLKQLRASLRVGDIVGAEGIPCRMQRGELSLAASRVEVLAPYVCRDQVVCPDLRGFTQLQDNDVRYRYRFVDMMTNRSVIDTIRKRHTVLQSLREYLDMRHFVEVETPILHTVASGANAKPFVTHHNANNADLFLRVAPELYLKQCVVGGLERVYEIGKVFRNEDADRSHNPEFTTCEFYAAYHTYEDLITMTEDIFRHLALRANGTTQLQIQCERAGITREIDLGATFRRISVYDEIQSASGVELPPPNELNTPKGLAYMSAIMLRHDIQFPAVRTAAKMFDKLIDFFITSHIVEPTFVMDHPIFMSPLAKEHSSRPGLAERFELFINGIEYCNAYSELNDPQEQCHRFQQQLIDRQGGDEEAMPLDETFLKSLQVGLPPTAGWGMGIDRVVMLLSGSSTIRDGIIFPLLRQDTRSHDCKRRHRVATFFDFNHQMALLCLSGVEQEMKRRGFPEASCAHIRELRQTIRDLGQRSGESDLTNFNCGEWWPGLTKTMIRLMCGRPRS	not soluble
MGSSHHHHHHGSPIHDKSPRPQEFAAVDLGSNSFHMVIARVVDGAMQIIGRLKQRVHLADGLGPDNMLSEEAMTRGLNCLSLFAERLQGFSPASVCIVGTHTLRQALNATDFLKRAEKVIPYPIEIISGNEEARLIFMGVEHTQPEKGRKLVIDIGGGSTELVIGENFEPILVESRRMGCVSFAQLYFPGGVINKENFQRARMAAAQKLETLTWQFRIQGWNVAMGASGTIKAAHEVLMEMGEKDGIITPERLEKLVKEVLRHRNFASLSLPGLSEERKTVFVPGLAILCGVFDALAIRELRLSDGALREGVLYEMEGRFRHQDVRSRTASSLANQYHIDSEQARRVLDTTMQMYEQWREQQPKLAHPQLEALLRWAAMLHEVGLNINHSGLHRHSAYILQNSDLPGFNQEQQLMMATLVRYHRKAIKLDDLPRFTLFKKKQFLPLIQLLRLGVLLNNQRQATTTPPTLTLITDDSHWTLRFPHDWFSQNALVLLDLEKEQEYWEGVAGWRLKIEEESTPEIAA	soluble
RYRGSKWAGKKSIPAFIDNDYNEADQVIENLQRNELTPREIADFIGRELAKGKKKGDIAKEIGKSPAFITQHVTLLDLPEKIADAFNTGRVRDVTVVNELVTAFKKRPEEVEAWLDDDTQEITRGTVKLLREFLDEKGRDPNTVDAFNGQTDAERDAEAGDGQDGEDGDQDGKDAKEK	soluble
DDKLRIGGTALFKRDRFVDNIGIEDSFFLKLMVDEMKQTTHQFQIDEDGEKAYVVVEKIFSSFNREMTGSMEAPHFRCHIHFRGEITDYTGPLTLTKDETMNKIEEGMARQIETKGEELLKRFQSLGIDPVGLGEKYRSHTRDWKPGVWHDSIYEQATVEVTAEVEIVQSGVTE	not soluble
MTAPVPTCNMSGNPINLHKLTLIMPLPSPEARQFSLKLQTLIAEKIGKHGNWIPFSRFMELVLYAPQYGYYTGGSHKIGNTGDFITAPTLTSLFAQTLARQLQELLSQTAGNIYEFGAGTGQLAADLLGSISDGISRYYIIEISPELAARQKNLIQARAPEASQKVVHLTALPEAFDGIIIGNEVLDAMPVEIVRKNEGGSFEHVGVCLDNDRFTYSARPLHDLQLSALASLYFPQTDYPYTSELHPQQYAFIRTLASRLEHGCMIFIDYGFDAAQYYHPQRNQGTLIGHYRHHIIHNPFDFIGLADLTAHVNFTDIAQAGTDAGLDLIGYLPQSHFLLNLGITELLAQTGKTDSAAYICEAAAVQKLIDQHEMGELFKVIAFGKNIGIDWAGFRFGDICHKL	not soluble
MKKTKIVALSMMNSQTSGNPSRGTTKFESYTFDYWQYIDTLVYWGGSSGEGIIVTPSADVIDEAHSNGVPVLGTIFLPPKEYGGKVDWVKTMLKKDEQGQYPFASQMVKVAKTYGFEGWFINEETQGLNADDAANMKALIQQVKKEDSSLQIMWYDAMTKDGKVDWQNQLNDQNATFVQDKAADAMFLNFWWTQNNLADQKLLEKSNLYAKNHNIDPYNIYAGIDVQAKDVQTPVKWNLLEKGNQATQTSIGLYAASATYTNASNWDDFQNRESAFWVNQKADPRQVDHSVNESWTGLSKYVLEKSAISGNEFNTNFNLGNGYNYFKAGQKISEMDWNDRSLAGILPSYRWIIDNEGKNKISPSFDFANAYNGGNSLKFMAEHLDAGKSSNITLFASDLKIAMGAKFSVSMRSDQALKVSAILELANGQKVSIAGDKSLTENWSKLEHHHHHH	not soluble
MWINKVIKKRFETDIVQHVHIAKGTAMFQGVRLAVRCFVVDGVLIDTGAKSMENEFTSFFQQQDIDQVVITHFHEDHTGCAAFLQRSMGLPIYMNEPMIEYCRQKADYPLYRKIFWGKRDPFAAKPIGATFSSRNATWDVIPTPGHAIDHVVFLNRETGQLFSGDLYCQEKTKVILREEDIPTIIASLQHVLTYDFGDVFCAHAGYLPNGREALQRKLDYLLELQGTIIDLYEKGTPPKQIQALLFPKKYPIIFFSGGEWDSLHIVRSVIRDYEAKQASLEHHHHHH	soluble
MAKTLYEKLFDAHVVYEAQNETPLLYIDRHLVHEVTSPQAFDGLRAHGRQVRQPGKTFATMDHNVSTQTKDINASGEMARIQMQELIKNCKEFGVELYDLNHPYQGIVHVMGPEQGVTLPGMTIVCGDS	not soluble
MSNTVLVSGASGFIALHILSQLLKQDYKVIGTVRSHEKEAKLLRQFQHNPNLTLEIVPDISHPNAFDKVLQKRGREIRYVLHTASPFHYDTTEYEKDLLIPALEGTKNILNSIKKYAADTVERVVVTSSCTAIITLAKMDDPSVVFTEESWNEATWESCQIDGINAYFASKKFAEKAAWEFTKENEDHIKFKLTTVNPSLLFGPQLFDEDVHGHLNTSCEMINGLIHTPVNASVPDFHSIFIDVRDVALAHLYAFQKENTAGKRLVVTNGKFGNQDILDILNEDFPQLRGLIPLGKPGTGDQVIDRGSTTDNSATRKILGFEFRSLHESVHDTAAQILKKENRL	not soluble
MSVAIDHDQTAKWDWPFQKGDGVVKVLDYEDHFEVGLEAHNFLPNEIDVKNIGEFLEIHMAHTTKDDKFGSITRSITRCYRLPKGTDPATIKSKLDGSGILHISGNKKK	not soluble
MAQGNPLTPEEIELLHAGDEENDNTDTLMVIRVPNDGSSATAISIPRDTYVHDENVGNLKINGVYRAYKNRKASELVNSGESDQKHIDELSKEAGRKALISSISDLTGVTVDHYAEVGLLGFVLLTNAVGGVDVCLNNDVYDEFSGADFKAGQQTLRDGQALAFVRQRHGLPRGDLDRIVRQQAFMASLVAKVLSSGTLTNPSKLSDLGEAVSRSVVIDKNWDVMSFANQLQNLAGGNVKFNTIPVTSIDGVGDYGESVVTVDKNQVHQFFDRLLNGNNGEETPTSDSEAPAENPHTSTTIDVLNATSTTGLASQVAGHLSAKHYTIGNIGNALEGMYHESQIVAADPNNEAVKAIAAELGGLPITQRNDLEHHHHHH	soluble
MRLPILLLSILGLSLGFGHDSPSSPAANQYATELADRFFTKFIKAVKYSDVRVMDSLLLSSNENLSSKNMIREFYKYPNTKIHDARFVGRNIATTVFFPLSPHGYDIPFKSADFILKKRFMGDWAITSMENLKYNSGKG	not soluble
